Several values for one entry are separate records, joined by “and”; a condition that tells them apart may be missing. Equal entries are not always repeated. Where two headings read alike, the source gives them in different places.
T1: recombinant venom-derived factor V from Pseudonaja textilis (pt-rFV) (Pseudonaja textilis, UniProt Q7SZN0 31-1460)
T1 sequence: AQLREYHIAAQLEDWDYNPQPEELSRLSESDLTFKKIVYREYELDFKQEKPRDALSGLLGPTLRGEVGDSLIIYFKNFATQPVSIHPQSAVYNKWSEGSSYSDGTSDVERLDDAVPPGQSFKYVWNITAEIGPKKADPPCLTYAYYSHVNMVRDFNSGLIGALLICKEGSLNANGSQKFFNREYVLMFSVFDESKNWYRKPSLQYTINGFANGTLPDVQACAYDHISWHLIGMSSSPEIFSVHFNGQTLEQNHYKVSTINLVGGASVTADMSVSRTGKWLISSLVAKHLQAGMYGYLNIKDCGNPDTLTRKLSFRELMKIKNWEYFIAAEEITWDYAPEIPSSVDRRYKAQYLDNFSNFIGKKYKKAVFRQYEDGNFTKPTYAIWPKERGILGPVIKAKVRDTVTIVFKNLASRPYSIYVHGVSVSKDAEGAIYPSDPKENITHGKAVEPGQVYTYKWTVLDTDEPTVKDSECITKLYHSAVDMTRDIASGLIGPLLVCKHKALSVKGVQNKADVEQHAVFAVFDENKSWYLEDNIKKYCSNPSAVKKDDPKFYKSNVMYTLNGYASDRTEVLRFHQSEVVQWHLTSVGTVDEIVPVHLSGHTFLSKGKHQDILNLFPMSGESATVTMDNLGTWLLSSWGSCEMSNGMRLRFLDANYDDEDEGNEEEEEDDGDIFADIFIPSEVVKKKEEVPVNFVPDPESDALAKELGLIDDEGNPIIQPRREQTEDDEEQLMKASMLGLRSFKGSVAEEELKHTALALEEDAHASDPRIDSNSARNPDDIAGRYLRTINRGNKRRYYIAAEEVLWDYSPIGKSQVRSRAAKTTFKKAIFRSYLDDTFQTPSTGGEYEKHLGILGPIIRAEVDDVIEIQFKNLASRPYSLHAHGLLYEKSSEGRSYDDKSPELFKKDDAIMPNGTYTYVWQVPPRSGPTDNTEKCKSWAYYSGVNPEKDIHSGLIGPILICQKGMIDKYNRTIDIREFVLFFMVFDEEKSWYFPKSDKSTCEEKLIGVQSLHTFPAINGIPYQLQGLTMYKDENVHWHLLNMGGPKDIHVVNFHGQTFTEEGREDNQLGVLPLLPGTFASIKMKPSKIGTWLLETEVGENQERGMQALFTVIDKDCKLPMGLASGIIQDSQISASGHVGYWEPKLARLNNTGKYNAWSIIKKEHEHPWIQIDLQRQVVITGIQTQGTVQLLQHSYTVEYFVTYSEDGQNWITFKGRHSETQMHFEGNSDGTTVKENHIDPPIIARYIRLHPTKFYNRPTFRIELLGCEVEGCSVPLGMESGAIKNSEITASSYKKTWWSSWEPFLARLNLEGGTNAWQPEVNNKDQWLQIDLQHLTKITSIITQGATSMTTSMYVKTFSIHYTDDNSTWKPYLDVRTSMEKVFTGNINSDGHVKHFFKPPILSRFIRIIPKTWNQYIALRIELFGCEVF

T2: pt-rFVa (pt-rFV processed by thrombin) (Pseudonaja textilis, UniProt Q7SZN0 31-772; Q7SZN0 819-1460)
T2 sequence (heavy): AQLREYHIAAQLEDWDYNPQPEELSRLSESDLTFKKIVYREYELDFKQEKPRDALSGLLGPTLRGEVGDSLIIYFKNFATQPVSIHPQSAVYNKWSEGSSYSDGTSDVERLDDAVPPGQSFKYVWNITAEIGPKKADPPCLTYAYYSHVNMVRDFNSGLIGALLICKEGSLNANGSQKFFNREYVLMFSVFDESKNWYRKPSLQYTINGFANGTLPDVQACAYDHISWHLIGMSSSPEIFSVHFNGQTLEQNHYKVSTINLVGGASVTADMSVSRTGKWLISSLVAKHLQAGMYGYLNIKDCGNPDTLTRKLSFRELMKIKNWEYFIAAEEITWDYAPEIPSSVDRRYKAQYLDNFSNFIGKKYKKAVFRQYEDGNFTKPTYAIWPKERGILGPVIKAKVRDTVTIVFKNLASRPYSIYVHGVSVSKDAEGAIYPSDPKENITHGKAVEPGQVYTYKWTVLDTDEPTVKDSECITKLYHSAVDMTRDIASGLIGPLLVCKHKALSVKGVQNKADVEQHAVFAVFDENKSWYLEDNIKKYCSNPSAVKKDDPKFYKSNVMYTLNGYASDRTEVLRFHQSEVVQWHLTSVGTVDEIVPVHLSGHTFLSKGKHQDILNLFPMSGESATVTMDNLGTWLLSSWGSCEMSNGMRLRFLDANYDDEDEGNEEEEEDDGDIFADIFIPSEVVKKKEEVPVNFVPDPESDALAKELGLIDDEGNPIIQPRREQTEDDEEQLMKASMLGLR
T2 sequence (light): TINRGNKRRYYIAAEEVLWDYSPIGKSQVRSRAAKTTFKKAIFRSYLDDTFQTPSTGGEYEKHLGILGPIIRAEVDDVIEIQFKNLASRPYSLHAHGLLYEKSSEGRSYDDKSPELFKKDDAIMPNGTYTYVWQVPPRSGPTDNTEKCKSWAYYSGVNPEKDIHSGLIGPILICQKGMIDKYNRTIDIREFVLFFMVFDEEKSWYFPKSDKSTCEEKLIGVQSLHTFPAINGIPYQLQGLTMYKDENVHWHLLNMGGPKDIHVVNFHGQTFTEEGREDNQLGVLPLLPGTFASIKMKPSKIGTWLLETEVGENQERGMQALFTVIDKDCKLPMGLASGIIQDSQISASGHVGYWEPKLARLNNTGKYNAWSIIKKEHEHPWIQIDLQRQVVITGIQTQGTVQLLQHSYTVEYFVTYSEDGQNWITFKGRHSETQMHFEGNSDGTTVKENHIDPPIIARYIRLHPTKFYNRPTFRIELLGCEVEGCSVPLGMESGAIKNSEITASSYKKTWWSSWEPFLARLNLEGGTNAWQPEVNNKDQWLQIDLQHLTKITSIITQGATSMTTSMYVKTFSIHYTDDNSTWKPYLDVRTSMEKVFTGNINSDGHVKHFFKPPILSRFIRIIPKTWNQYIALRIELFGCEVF


Legend:
[1] = target: T1, recombinant venom-derived factor V from …
[2] = target: hFV-810 (constitutively active partial B-domainless form of human FV) (human, UniProt P12259 29-2224)
[3] = target: T2, pt-rFVa (pt-rFV processed by thrombin)
[4] = target: T1, recombinant venom-derived factor V from …; test: fluorescent binding measurements, membrane-bound human FXa (data not shown)
[5] = target: T2, pt-rFVa (pt-rFV processed by thrombin); test: as above

Sequence of hFV-810 (constitutively active partial B-domainless form of human FV) (P12259 other isoform, or with tags, fused parts or gaps limits assumed): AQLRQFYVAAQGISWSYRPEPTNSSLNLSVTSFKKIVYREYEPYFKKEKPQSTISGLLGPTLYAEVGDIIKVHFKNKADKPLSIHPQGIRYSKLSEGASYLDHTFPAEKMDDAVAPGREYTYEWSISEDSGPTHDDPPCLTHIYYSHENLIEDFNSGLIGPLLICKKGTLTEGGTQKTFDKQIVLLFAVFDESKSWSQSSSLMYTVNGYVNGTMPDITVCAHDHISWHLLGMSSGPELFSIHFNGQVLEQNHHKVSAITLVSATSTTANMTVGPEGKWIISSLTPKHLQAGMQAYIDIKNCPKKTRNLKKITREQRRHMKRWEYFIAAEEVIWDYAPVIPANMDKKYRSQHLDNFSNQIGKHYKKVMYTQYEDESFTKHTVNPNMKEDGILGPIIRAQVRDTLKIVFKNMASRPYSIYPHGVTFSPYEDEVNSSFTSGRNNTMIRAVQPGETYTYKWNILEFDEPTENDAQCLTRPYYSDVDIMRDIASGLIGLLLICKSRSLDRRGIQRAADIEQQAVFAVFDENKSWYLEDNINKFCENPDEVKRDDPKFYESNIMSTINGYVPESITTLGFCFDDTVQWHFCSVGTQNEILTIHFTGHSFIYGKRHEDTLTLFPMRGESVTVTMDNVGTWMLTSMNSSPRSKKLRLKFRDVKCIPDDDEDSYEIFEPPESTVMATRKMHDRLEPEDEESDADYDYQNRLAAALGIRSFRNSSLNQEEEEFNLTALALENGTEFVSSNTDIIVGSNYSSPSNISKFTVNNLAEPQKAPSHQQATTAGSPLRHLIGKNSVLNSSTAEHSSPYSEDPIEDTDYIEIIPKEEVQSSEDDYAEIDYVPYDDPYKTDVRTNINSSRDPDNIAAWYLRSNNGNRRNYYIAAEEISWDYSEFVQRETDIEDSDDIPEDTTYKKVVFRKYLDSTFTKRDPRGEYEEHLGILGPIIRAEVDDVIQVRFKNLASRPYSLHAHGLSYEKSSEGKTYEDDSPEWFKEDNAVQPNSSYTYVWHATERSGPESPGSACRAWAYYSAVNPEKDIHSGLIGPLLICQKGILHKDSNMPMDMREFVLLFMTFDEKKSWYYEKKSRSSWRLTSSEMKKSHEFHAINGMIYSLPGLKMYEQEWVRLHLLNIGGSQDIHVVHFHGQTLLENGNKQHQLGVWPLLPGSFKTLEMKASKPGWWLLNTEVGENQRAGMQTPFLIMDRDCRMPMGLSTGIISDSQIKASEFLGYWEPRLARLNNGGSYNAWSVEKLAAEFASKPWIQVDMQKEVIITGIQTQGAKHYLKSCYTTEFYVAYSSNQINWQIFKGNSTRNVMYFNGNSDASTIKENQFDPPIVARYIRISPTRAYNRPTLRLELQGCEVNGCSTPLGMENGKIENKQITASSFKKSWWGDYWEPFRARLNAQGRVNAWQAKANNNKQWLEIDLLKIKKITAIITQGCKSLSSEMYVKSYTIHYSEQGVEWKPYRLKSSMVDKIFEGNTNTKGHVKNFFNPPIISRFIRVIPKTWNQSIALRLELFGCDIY

| Binder | Kd [1] | Kd [2] [nM] | Kd [3] | Kd [4] [nM] | Kd [5] [nM] |
| --- | --- | --- | --- | --- | --- |
| purified enzymatic subunit of pseutarin C (pt-FXa) (enzyme) chain 1: ANSLVEEFKSGNIERECIEERCSKEEAREVFEDDEKTETFWNVYVDGDQCSSNPCHYRGICKDGIGSYTCTCLSGYEGKNCERVLYKSCRVDNGNCWHFCKSVQNDIQCSCAEGYLLGEDGHSCVAGGNFSCGRNIKTRNK chain 2: IVNGMDCKLGECPWQAALVDDKKGVFCGGTILSPIYVLTAAHCINETETISVVVGEIDRSRAETGPLLSVDKVYVHKKFVPPKKSQEFYEKFDLVSYDYDIAIIQMKTPIQFSENVVPACLPTADFANQVLMKQDFGIVSGFGGIFERGPNSKTLKVLKVPYVDRHTCMLSSNFPITPTMFCAGYDTLPQDACQGDSGGPHITAYRDTHFITGIVSWGEGCARKGRYGIYTKLSKFIPWIKRIMRQKLPSTESSTGRL | 3.06 nM and 8.08 nM | 3.76 | 3.84 nM and 7.54 nM |  |  |
| human factor Xa (membrane-bound human FXa) (enzyme, also called rFXa; human rFXa) chain 1: ANSFLEEMKKGHLERECMEETCSYEEAREVFEDSDKTNEFWNKYKDGDQCETSPCQNQGKCKDGLGEYTCTCLEGFEGKNCELFTRKLCSLDNGDCDQFCHEEQNSVVCSCARGYTLADNGKACIPTGPYPCGKQTLER chain 2: IVGGQECKDGECPWQALLINEENEGFCGGTILSEFYILTAAHCLYQAKRFKVRVGDRNTEQEEGGEAVHEVEVVIKHNRFTKETYDFDIAVLRLKTPITFRMNVAPACLPERDWAESTLMTQKTGIVSGFGRTHEKGRQSTRLKMLEVPYVDRNSCKLSSSFIITQNMFCAGYDTKQEDACQGDSGGPHVTRFKDTYFVTGIVSWGEGCARKGKYGIYTKVTAFLKWIDRSMKTRGLPKAKSHAPEVITSSPLK |  |  |  | > 400 | > 400 |

From patent US8557762 (CHILDREN S HOSPITAL OF PHILADELPHIA, dated 2013)
